In US20080300206:

Target: recombinant wild-type human alpha-synuclein

B1: GRK7 (protein)
chain: MVDMGALDNLIANTAYLQARKPSDCDSKELQRRRRSLALPGLQGCAELRQKLSLNFHSLCEQQPIGRRLFRDFLATVPTFRKAATFLEDVQNWELAEEGPTKDSALQGLVATCASAPAPGNPQPFLSQAVATKCQAATTEEERVAAVTLAKAEAMAFLQEQPFKDFVTSAFYDKFLQWKLFEMQPVSDKYFTEFRVLGKGGFGEVCAVQVKNTGKMYACKKLDKKRLKKKGGEKMALLEKEILEKVSSPFIVSLAYAFESKTHLCLVMSLMNGGDLKFHIYNVGTRGLDMSRVIFYSAQIACGMLHLHELGIVYRDMKPENVLLDDLGNCRLSDLGLAVEMKGGKPITQRAGTNGYMAPEILMEKVSYSYPVDWFAMGCSIYEMVAGRTPFKDYKEKVSKEDLKQRTLQDEVKFQHDNFTEEAKDICRLFLAKKPEQRLGSREKSDDPRKHHFFKTINFPRLEAGLIEPPFVPDPSVVYAKDIAEIDDFSEVRGVEFDDKDKQFFKNFATGAVPIAWQEEIIETGLFEELNDPNRPTGCEEGNSSKSGVCLLL
  S129 phosphorylation, immunoblot (11A5): Prominent signals came from all GRKs except for GRK7
  in vitro kinase reaction, phosphorylation of alpha-synuclein at serine 129: capable of phosphorylating alpha-synuclein specifically at serine 129 and did not phosphorylate serine 87 in vitro
  phosphorylation of AS in vitro: GRK 7 was not able to phosphorylate at appreciable levels

B2: GRK2 (protein)
chain: MADLEAVLADVSYLMAMEKSKATPAARASKKILLPEPSIRSVMQKYLEDRGEVTFEKIFSQKLGYLLFRDFCLNHLEEARPLVEFYEEIKKYEKLETEEERVARSREIFDSYIMKELLACSHPFSKSATEHVQGHLGKKQVPPDLFQPYIEEICQNLRGDVFQKFIESDKFTRFCQWKNVELNIHLTMNDFSVHRIIGRGGFGEVYGCRKADTGKMYAMKCLDKKRIKMKQGETLALNERIMLSLVSTGDCPFIVCMSYAFHTPDKLSFILDLMNGGDLHYHLSQHGVFSEADMRFYAAEIILGLEHMHNRFVVYRDLKPANILLDEHGHVRISDLGLACDFSKKKPHASVGTHGYMAPEVLQKGVAYDSSADWFSLGCMLFKLLRGHSPFRQHKTKDKHEIDRMTLTMAVELPDSFSPELRSLLEGLLQRDVNRRLGCLGRGAQEVKESPFFRSLDWQMVFLQKYPPPLIPPRGEVNAADAFDIGSFDEEDTKGIKLLDSDQELYRNFPLTISERWQQEVAETVFDTINAETDRLEARKKAKNKQLGHEEDYALGKDCIMHGYMSKMGNPFLTQWQRRYFYLFPNRLEWRGEGEAPQSLLTMEEIQSVEETQIKERKCLLLKIRGGKQFILQCDSDPELVQWKKELRDAYREAQQLVQRVPKMKNKPRSPVVELSKVPLVQRGSANGL
  S129 phosphorylation, immunoblot (11A5), rank of signal: CKI>GRK6>PLK2>GRK4>GRK5>GRK2
  in vitro kinase reaction, phosphorylation of alpha-synuclein at serine 129: capable of phosphorylating alpha-synuclein specifically at serine 129 and did not phosphorylate serine 87 in vitro

B3: PLK3 (protein)
chain: MEPAAGFLSPRPFQRAAAAPAPPAGPGPPPSALRGPELEMLAGLPTSDPGRLITDPRSGRTYLKGRLLGKGGFARCYEATDTETGSAYAVKVIPQSRVAKPHQREKILNEIELHRDLQHRHIVRFSHHFEDADNIYIFLELCSRKSLAHIWKARHTLLEPEVRYYLRQILSGLKYLHQRGILHRDLKLGNFFITENMELKVGDFGLAARLEPPEQRKKTICGTPNYVAPEVLLRQGHGPEADVWSLGCVMYTLLCGSPPFETADLKETYRCIKQVHYTLPASLSLPARQLLAAILRASPRDRPSIDQILRHDFFTKGYTPDRLPISSCVTVPDLTPPNPARSLFAKVTKSLFGRKKKSKNHAQERDEVSGLVSGLMRTSVGHQDARPEAPAASGPAPVSLVETAPEDSSPRGTLASSGDGFEEGLTVATVVESALCALRNCIAFMPPAEQNPAPLAQPEPLVWVSKWVDYSNKFGFGYQLSSRRVAVLFNDGTHMALSANRKTVHYNPTSTKHFSFSVGAVPRALQPQLGILRYFASYMEQHLMKGGDLPSVEEVEVPAPPLLLQWVKTDQALLMLFSDGTVQVNFYGDHTKLILSGWEPLLVTFVARNRSACTYLASHLRQLGCSPDLRQRLRYALRLLRDRSPA
  Fold Change in Percent Synuclein Phosphorylation, HEK-293 overexpression: 39.6 fold
  Proportion of total synuclein that is phoshorylated at ser-129, HEK-293 overexpression, ELISA: 79.2%
  in vitro biochemical assay, phosphorylation of synuclein: PLK2 and PLK3 having extremely robust phosphorylation of synuclein

B4: G protein-coupled receptor kinase 6 (GRK6) (protein)
chain: MELENIVANTVLLKAREGGGGNRKGKSKKWRQMLQFPHISQCEELRLSLERDYHSLCERQPIGRLLFREFCATRPELSRCVAFLDGVAEYEVTPDDKRKACGRQLTQNFLSHTGPDLIPEVPRQLVTNCTQRLEQGPCKDLFQELTRLTHEYLSVAPFADYLDSIYFNRFLQWKWLERQPVTKNTFRQYRVLGKGGFGEVCACQVRATGKMYACKKLEKKRIKKRKGEAMALNEKQILEKVNSRFVVSLAYAYETKDALCLVLTLMNGGDLKFHIYHMGQAGFPEARAVFYAAEICCGLEDLHRERIVYRDLKPENILLDDHGHIRISDLGLAVHVPEGQTIKGRVGTVGYMAPEVVKNERYTFSPDWWALGCLLYEMIAGQSPFQQRKKKIKREEVERLVKEVPEEYSERFSPQARSLCSQLLCKDPAERLGCRGGSAREVKEHPLFKKLNFKRLGAGMLEPPFKPDPQAIYCKDVLDIEQFSTVKGVELEPTDQDFYQKFATGSVPIPWQNEMVETECFQELNVFGLDGSVPPDLDWKGQPPAPPKKGLLQRLFSRQDCCGNCSDSEEELPTRL
  S129 phosphorylation in vitro, normalised by activity units: The most prominent result came from GRK6
  S129 phosphorylation, immunoblot (11A5), kinase:AS 1:200 molar: Prominent signals came from GRK6, CKI, CKII and PLK2
  S129 phosphorylation, immunoblot (11A5), rank of signal: CKI>GRK6>PLK2>GRK4>GRK5>GRK2
  in vitro kinase reaction, phosphorylation of alpha-synuclein at serine 129: capable of phosphorylating alpha-synuclein specifically at serine 129 and did not phosphorylate serine 87 in vitro
  phospho ser-129 level in vitro, normalised for molarity: roughly equivalent levels of phospho ser-129 between CKI, GRK6 and PLK2

B5: GRK4 (protein)
chain: MELENIVANSLLLKARQGGYGKKSGRSKKWKEILTLPPVSQCSELRHSIEKDYSSLCDKQPIGRRLFRQFCDTKPTLKRHIEFLDAVAEYEVADDEDRSDCGLSILDRFFNDKLAAPLPEIPPDVVTECRLGLKEENPSKKAFEECTRVAHNYLRGEPFEEYQESSYFSQFLQWKWLERQPVTKNTFRHYRVLGKGGFGEVCACQVRATGKMYACKKLQKKRIKKRKGEAMALNEKRILEKVQSRFVVSLAYAYETKDALCLVLTIMNGGDLKFHIYNLGNPGFDEQRAVFYAAELCCGLEDLQRERIVYRDLKPENILLDDRGHIRISDLGLATEIPEGQRVRGRVGTVGYMAPEVVNNEKYTFSPDWWGLGCLIYEMIQGHSPFKKYKEKVKWEEVDQRIKNDTEEYSEKFSEDAKSICRMLLTKNPSKRLGCRGEGAAGVKQHPVFKDINFRRLEANMLEPPFCPDPHAVYCKDVLDIEQFSVVKGIYLDTADEDFYARFATGCVSIPWQNEMIESGCFKDINKSESEEALPLDLDKNIHTPVSRPNRGFFYRLFRRGGCLTMVPSEKEVEPKQC
  S129 phosphorylation, immunoblot (11A5), rank of signal: CKI>GRK6>PLK2>GRK4>GRK5>GRK2
